System: MS2 coat protein
Test: apparent KD of MS2 coat protein; designed switch direction (-1 OFF switch, 1 ON switch): -1; higher = weaker reporter binding
Outline: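 Designed RNA switches were transcribed on Illumina chips by stalled E. coli RNA polymerase and titrated with SNAP-549-labelled MS2 coat protein from 0.7 or 1.5 nM, doubling to 3 µM. Step length ran from 0.8–1.5 h at the lowest concentration to 10–20 min at the highest. The apparent KD is the median over clusters for each design, from curve-fitted normalised cluster fluorescence.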

[1] = Eterna round: R95, input ligand: microRNA oligo, concentration not stated
[2] = input ligand: microRNA oligo, concentration not stated

Sequence	apparent KD of MS2 coat protein (input ligand: FMN 200 uM) [nM]	apparent KD of MS2 coat protein (input ligand: none) [nM]	apparent KD of MS2 coat protein [2] [nM]	also measured
AUGUUGUCAGGAUAUCGUUAAUUUAGUUGUUUGUAUUAGUUCGAGAAGGGACAUGAGGAUCACCCAUGUUUGAA [Ex4 #35] (Eterna round: R97, puzzle: Exclusion 4)	41.2	34.8		
AUUAAAACAUAGGAUAUCGAAUUUAUUAUUUAACGAGAAGGAUGAACAUGAGGAUCACCCAUGUGGUAUCAUGG [Mat - Exclusion 6 - JL Mod - D26] (puzzle: Exclusion 6)				apparent KD of MS2 coat protein [1]: 202 nM
AUUAUACAUGAGGAUCACCCAUGUGAGGAUAUCCGCAGCACAGGCAGAGUCGGUUGCAGGAGAAGGCACUCCUC [Eternabot (L1) Solution 57] (Eterna round: R97, puzzle: Exclusion 1)	72.5	44.4		
AUUAUAUAGACAGGAUAUUGAUUAUUAUUUUAACAUGAGGAUCACCCAUGUAACCUUAUGUAUAGCAAGAAGGGUCAUUUAUUA [Title] (Eterna round: R96, puzzle: Exclusion NG 2)	107	75.6	72.9	
AUUAUAUAGACAGGAUAUUGAUUAUUAUUUUAACAUGAGGAUCACCCAUGUAACCUUAUGUGUAGCAAGAAGGGUCAUUUAUUA [Title] (Eterna round: R96, puzzle: Exclusion NG 2)			81.8	
AUUCGAAAGAUCCACAUGGACAUGAGGAUCACCCAUGUGCAAGCCUUUUUCUCGUCACUAUCGUCAAAAGACGAUAG [Omei Mir Offv1 A7] (Eterna round: R97, puzzle: Sensor, turn-off variant 1)	744	848		
AUUGAUGUUGAGGAUAUGCUUUUAUUUGUUCUUGCAGAAGGCGAUACAUGAGGAUCACCCAUGUUCAUGGAAGU [JR_E6_Sub090] (puzzle: Exclusion 6)				apparent KD of MS2 coat protein [1]: 39.7 nM
AUUGCGCGAGGAUAUACGAGAGACCUGUGUCAGAACCAUGGACAUGAGGAUCACCCAUGUAGAAGGCGUGCUCU [Eternabot (L1) Solution 73] (Eterna round: R97, puzzle: Exclusion 2)	78.6	1200		
AUUGUUUAUGUAGGAUAUGCCUGGCGUGCCUUUGCAGAAGGACAUGAGGAUCACCCAUGUAACAUGAGGCUCACCCAUGUCGCC [salish99_ExNG1_r04_114] (Eterna round: R96, puzzle: Exclusion NG 1)	162	170	123	
AUUGUUUAUGUAGGAUAUGCCUGGCGUGCCUUUGCAGAAGGACAUGAGGAUCACCCAUGUAACAUGAGGCUCACCCAUGUCGCG [salish99_ExNG1_r04_113] (Eterna round: R96, puzzle: Exclusion NG 1)	297	333	184	
AUUGUUUGAUACCUCUAAUACAUGAGGAUCACCCAUGUUAUCGAGGAUAUGUAGAAGAGAGGAGAACAGAAGGCGAAGUAAGAG [JR_ExcNG3_Sub095] (Eterna round: R96, puzzle: Exclusion NG 3)	14.6	17.7	14.5	
AUUUAACAUGAGGAUCACCCAUGUGAGGAUAUGUCCAUAUUCGGCAAAUCGGAUAUGGACAGAAGGCACACCGG [JR_Exclusion1_Sub008] (puzzle: Exclusion 1)				apparent KD of MS2 coat protein [1]: 139 nM
AUUUAGCAAGCCAGAUCCUACAUGAGGAUCACCCAUGUAGUUCGUCUUAUUUGAAGACAACACAAAAGUGUUGUCUU [Omei Mir OFFv1 B6] (Eterna round: R97, puzzle: Sensor, turn-off variant 1)	15.7	14		
AUUUAGUGAGGAUAUGUGGCUUCGAUCGUGAGAUCGAGGCUACAGAAGGCACAUGAGGAUCACCCAUGUUCCUA [salish99_ex4_r4_115] (Eterna round: R97, puzzle: Exclusion 4)	86.3	21.4		
CAAAAGCUAGGAUAUCGCAAACAAGACAUGAGGAUCACCCAUGUGUCCAUGGCCGACCUCCGAGAAGGAGCAAUAU [Dieded] (puzzle: Exclusion 5)				apparent KD of MS2 coat protein (Eterna round: R95, input ligand: FMN 200 uM): 32.5 nM; apparent KD of MS2 coat protein [1]: 27.9 nM; apparent KD of MS2 coat protein (Eterna round: R95, input ligand: none): 30.5 nM
CAAAAGGGAGGAUAUACUUGAGGAUCACCCAAGUAAUCGGGUCAAAGAUACCAAGCAGGUAGAAGGCCCAAAUA [Teedleveer] (Eterna round: R97, puzzle: Exclusion 3)	91.5	84.7		
CAAAAUGCUCGAGGAUAUCCGAGGAGCAGAAAAGGAGAAGGCGAGGAUAAAGAACAUGAGGAUCACCCAUGUGAACCUCGUAAU [Lereores] (Eterna round: R96, puzzle: Exclusion NG 1)	16.9	16.1	14.6	
CAAACAAAGUCAGGAUAUGUCAAAUUUGUUACGACAGAAGGGACGGGACCGACACUCACAGACAUGAGGAUCACCCAUGUAAAA [Areris] (Eterna round: R96, puzzle: Exclusion NG 1)	37.8	33.5	19	
CAAACAAGCGAAAGAUCCCACAUGAGGAUCACCCAUGUGCUCGUCUUAUAAGGUACUGUGACGAUAGUCACGGUACC [Mat - Sensor, turn-off var - Eli Mod - D79] (Eterna round: R97, puzzle: Sensor, turn-off variant 1)	36.8	45.2		
CAACAUGGACCUCGCUCCGACAUGAGGAUCACCCAUGUUGGAACCUUACUGGCGUCGAGUGUUGCUCGUCUUACCGU [Eternabot (Original) Solution 10] (Eterna round: R97, puzzle: Sensor, turn-off variant 1)	189	268		
CAACUGUCAGGAUAUCGUGCAUACAACGAAAGUUCUAUGUGCGAGAAGGGACAUGAGGAUCACCCAUGUAAACG [Omei Ex4 A27] (Eterna round: R97, puzzle: Exclusion 4)	199	60.9		
CAAGUCCUUUACUACAAGCACAUGAGGAUCACCCAUGUCAAAUUUGUGCCUCGGUACGGAAGCUCGUCUUUUCGUAG [Eternabot (L2) Solution 1] (Eterna round: R97, puzzle: Sensor, turn-off variant 1)	30	35.6		
CAAUAACAAGCGAGAUCCUACAUGAGGAUCACCCAUGUGCUCGUCUUAAAAGGUACUGUGACGAUAGUCACGGUACC [Mat - Sensor, turn-off var - Eli Mod - D98] (Eterna round: R97, puzzle: Sensor, turn-off variant 1)	15.3	17.9		
CAAUACAAGCGAAGAUCCUACAUGAGGAUCACCCAUGUGCUCGUCUUAAAAGGUACUGAGACGAAAGUCUCGGUACC [Mat - Sensor, turn-off var - Eli Mod - D99] (Eterna round: R97, puzzle: Sensor, turn-off variant 1)	280	367		
CAAUUCAGAGGAUAUGCGCAUAGAUAAGACUUUUUUUCUUAACAUGAGGAUCACCCAUGUAGAAGGCUGUAAAC [Ex2 #62] (Eterna round: R97, puzzle: Exclusion 2)	16.5	16.8		
CACAAAACUGUCAGGAUAUCAGAUGCCGACCCAUAUGAGAAGGGACAUGAGGAUCACCCAUGUACUGGUUCUCA [BmEX4 B.6] (Eterna round: R97, puzzle: Brourd's mod of Exclusion 4)	13.9	19.8		
CACAAGCUUGGGCUCGCUGACAUGAGGAUCACCCAUGUCGGAUCAGACACCAAACGUCUCGAUCACGACGGAUCCAG [Eternabot (Original) Solution 7] (Eterna round: R97, puzzle: Sensor, turn-off variant 1)	40	33.3		
CACAUGAGACGGAGAUCCAACAUGAGGAUCACCCAUGUCUCAAAAGCUUUUUGCUUGUCUUAUCCUCCUCUCGUGAC [Mat - Sensor, turn-off var - Eli Mod - D61] (Eterna round: R97, puzzle: Sensor, turn-off variant 1)	47.8	46.7		
CACCGUUACAGAGGAUAUCGUACAUGAGGAUCACCCAUGUAAUAAAUGAGAAUUUCGGAUGUAUGCGAGAAGGCUGGAAUCGGC [Ostracism 37 - Jieux - Exclusion NG 2] (Eterna round: R96, puzzle: Exclusion NG 2)			20.7	
CACCGUUAGAGAGGAUAUCGUACAUGAGGAUCACCCAUGUAAUAAAUGAGAAUUUCGGAUGUCUGCGAGAAGGCUCGAAUCGGC [Ostracism 32 - Jieux - Exclusion NG 2] (Eterna round: R96, puzzle: Exclusion NG 2)			23	
